Measurements published in the array DNA melting data of Ke et al..

Assay: melting temperature; melt of duplexes
Details: sodium 0.0675 M; strand 1 µM

Substance	Tm
CGACGTGCTCCATGTGCTG+CAGCACATGAAGCACGTCG (((((((((.(((((((((+))))))))).)))))))))	57.4 °C
CGACGTGCTCCATGTGCTG+CAGCACATGCTGCACGTCG ((((((((..(((((((((+)))))))))..))))))))	50.8 °C
CGACGTGCTCCATGTGCTG+CAGCACATGGAGCACGTCG (((((((((((((((((((+)))))))))))))))))))	66.1 °C
CGACGTGCTCCATGTGCTG+CAGCACATGTAGCACGTCG (((((((((.(((((((((+))))))))).)))))))))	56.3 °C
CGACGTGCTCCATGTGCTG+CAGCACATGTCGCACGTCG ((((((((..(((((((((+)))))))))..))))))))	52.1 °C
CGACGTGCTCCATGTGCTG+CAGCACATTAAGCACGTCG (((((((((..((((((((+))))))))..)))))))))	49.4 °C
CGACGTGCTCCATGTGCTG+CAGCACATTAGGCACGTCG ((((((((...((((((((+))))))))...))))))))	48.4 °C
CGACGTGCTCCATGTGCTG+CAGCACATTCAGCACGTCG (((((((((..((((((((+))))))))..)))))))))	48.7 °C
CGACGTGCTCCATGTGCTG+CAGCACATTCGGCACGTCG ((((((((...((((((((+))))))))...))))))))	47.6 °C
CGACGTGCTCCATGTGCTG+CAGCACATTCTGCACGTCG ((((((((...((((((((+))))))))...))))))))	47.2 °C
CGACGTGCTCCATGTGCTG+CAGCACATTTAGCACGTCG (((((((((..((((((((+))))))))..)))))))))	49.4 °C
CGACGTGCTCGATGTGCTG+CAGCACATACTGCACGTCG ((((((((...((((((((+))))))))...))))))))	49 °C
CGACGTGCTCGATGTGCTG+CAGCACATAGAGCACGTCG ((((((((((.((((((((+)))))))).))))))))))	59.5 °C
CGACGTGCTCGATGTGCTG+CAGCACATAGCGCACGTCG ((((((((.(.((((((((+)))))))).).))))))))	51.6 °C
CGACGTGCTCGATGTGCTG+CAGCACATAGTGCACGTCG ((((((((.(.((((((((+)))))))).).))))))))	49.8 °C
CGACGTGCTCGATGTGCTG+CAGCACATCAAGCACGTCG (((((((((.(((((((((+))))))))).)))))))))	57.2 °C
CGACGTGCTCGATGTGCTG+CAGCACATCCCGCACGTCG ((((((((..(((((((((+)))))))))..))))))))	52.1 °C
CGACGTGCTCGATGTGCTG+CAGCACATCCGGCACGTCG ((((((((..(((((((((+)))))))))..))))))))	53.7 °C
CGACGTGCTCGATGTGCTG+CAGCACATCCTGCACGTCG ((((((((..(((((((((+)))))))))..))))))))	53 °C
CGACGTGCTCGATGTGCTG+CAGCACATCGAGCACGTCG (((((((((((((((((((+)))))))))))))))))))	66.6 °C
CGACGTGCTCGATGTGCTG+CAGCACATCGGGCACGTCG ((((((((.((((((((((+)))))))))).))))))))	62.2 °C
CGACGTGCTCGATGTGCTG+CAGCACATCGTGCACGTCG ((((((((.((((((((((+)))))))))).))))))))	59 °C
CGACGTGCTCGATGTGCTG+CAGCACATCTCGCACGTCG ((((((((..(((((((((+)))))))))..))))))))	53.3 °C
CGACGTGCTCGATGTGCTG+CAGCACATGAAGCACGTCG (((((((((..((((((((+))))))))..)))))))))	52.8 °C
CGACGTGCTCGATGTGCTG+CAGCACATGACGCACGTCG ((((((((...((((((((+))))))))...))))))))	47.4 °C
CGACGTGCTCGATGTGCTG+CAGCACATGATGCACGTCG ((((((((...((((((((+))))))))...))))))))	51.9 °C
CGACGTGCTCGATGTGCTG+CAGCACATGCTGCACGTCG ((((((((...((((((((+))))))))...))))))))	47 °C
CGACGTGCTCGATGTGCTG+CAGCACATGGGGCACGTCG ((((((((.(.((((((((+)))))))).).))))))))	54.5 °C
